The source of these data is publication PMC9604149, “Evolution of the vls Antigenic Variability Locus of the Lyme Disease Pathogen and Development of Recombinant Monoclonal Antibodies Targeting Conserved VlsE Epitopes” (Microbiology Spectrum, 2022).

Positions count from the first letter of the chain named.

B1: recombinant monoclonal antibody 15E2-1 (antibody, V domains shown)
VH: QSLEESGGGLFKPTDTLTLTCTVSGIDLSSYAMIWVRQAPGKGLEWIGYIWSSGRIWYASWAKGRFTISRTSTTVDLKLASPTTEDTATYFCARLWDIWGPGTLVTVSS
VL: AQVLTQTPSSVSAAVGGTVTISCQASQSLYNGVNLAWYQQKPGQPPKLLIFGASNLESGVSSRFRGSGSGTQFTLTISGVQCDDAATYYCLGEFSCSSADCLAFGGGTEVVVK
notes: the antibody was detected with an anti-rabbit IgG secondary antibody; Only the variable regions are printed; also called anti-IR4 rMAb; source: made by GenScript
B2: recombinant monoclonal antibody 17A8-1 (antibody, V domains shown)
VH: QSVEESGGRLVTPGTPLTLTCTVSGFPLSSYSMAWVRQAPGKGLEYIGFINTDGSAYYASWAKGRITISKTSTTVELKITSPTTEDTATYFCGTGNIWGPGTLVTVSS
VL: AQVLTQTPSSVSAAVGGTVTINCQASQSVSNNNVLAWFQQKPGQPPKRLIYSALTLDSGVPSRFKGSGSGTHFTLTISGVQCDDAATYYCAGGYDCSSNDCIAFGGGTEVVVK
notes: as for B1
B3: recombinant monoclonal antibody 28D3-1 (antibody, V domains shown)
VH: B2 VH with P27S, A34G, F49M, N51I, T52S, D53N, G54N, A56T
VL: B2 VL with S9A, V29T, V34A, A103T
notes: as for B1
B4: recombinant monoclonal antibody 1D11-4 (antibody, V domains shown)
VH: QSLVESGGGLVQPEGSLTLTCKASGFSFSSGYDMCWVRQAPGKGLEYIACIDAGDDITHYASWVKGRFTVSKTSSTTVTLQLNSLTVADTATYFCGRFWDLWGPGTLVTVSS
VL: SSVLTQTPSPVSAAVGGTVTINCQSSQSVYDSTWLGWYQQKPGQPPKLLIYKASNLASGVPSRFKGSGSGTHFTLTISDLECDDAATYYCVGGYSGSVDNWAFGGGTEVVVK
notes: the antibody was detected with an anti-rabbit IgG secondary antibody; Only the variable regions are printed; also called anti-IR6 rMAb; source: made by GenScript
B5: antibody in the supernatant of rabbit B cell line 15E2 (antibody, V domains shown)
VH: B1 VH
VL: B1 VL
notes: Unpurified antibody of the cell line
B6: antibody in the supernatant of rabbit B cell line 28D3 (antibody, V domains shown)
VH: B2 VH with P27S, A34G, F49M, N51I, T52S, D53N, G54N, A56T
VL: B2 VL with S9A, V29T, V34A, A103T
notes: as for B5
B7: antibody in the supernatant of rabbit B cell line 17A8 (antibody, V domains shown)
VH: B2 VH
VL: B2 VL
notes: as for B5
B8: antibody in the supernatant of rabbit B cell line 1D11 (antibody, V domains shown)
VH: B4 VH
VL: B4 VL
notes: Unpurified antibody of the cell line; also called anti-IR6 1D11 cell line

The first experiment addresses T1, recombinant VlsE protein (of strain B31) (Borreliella burgdorferi B31 (clone …, UniProt O06878)).
T1 construct: VlsE of B. burgdorferi B31, clone B31-5A3: the 585-bp vlsE cassette region (including the IR1 through VR6 regions), codon-optimized; 585 bp would encode about 195 residues; also called recombinant B31 VlsE; vlsE cassette; source: E. coli BL21 (pET24), purified (Ni-NTA); estimated purity ~65%
The experiment can be described thus: ELISA; validation of the specificity of the purified rMAbs: antigen (IR peptide or VlsE) fixed on the plate; dilution not told. Particulars: both partners purified.
As for B1, the binding result is “binds”.
On the same count and under the same terms, for B2 the value was “binds”.
Take B3: the binding result is “binds”.
For the molecule B4, the binding result was “binds”.

The next experiment deals with T1, recombinant VlsE protein (of strain B31). The experiment can be described thus: ELISA; antigen (IR peptide or recombinant VlsE) coated on a 96-well plate at 10 ug/mL overnight at 4 C, blocked with 5% milk; supernatants of rabbit B cell lines applied; HRP anti-rabbit IgG secondary 1:30,000; OD450; reactive if more than 3 SD above the mean BSA reactivity. The following applies: one partner purified.
Take B5: the binding result was “binds”.
Same read-out and setting: for B6 the value was “binds”; for B7, “binds”; for B8, “binds”.
